Experimental data from publication PMC10216065.

Biological target: T1, E. coli SufE (E. coli), P76194
T1 chain: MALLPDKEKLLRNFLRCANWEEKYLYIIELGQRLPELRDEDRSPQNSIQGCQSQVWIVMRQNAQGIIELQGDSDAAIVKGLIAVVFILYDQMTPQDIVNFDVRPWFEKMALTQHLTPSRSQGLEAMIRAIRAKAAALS
Assay: cross-linking; disulfide-linked species after treatment with 1 mM H2O2; SDS-PAGE under reducing (+DTT) and non-reducing (-DTT) conditions
Conditions: remark: other sources report otherwise

percent of total SufE as disulfide-bonded homodimer: 34%
B1: E. coli SufE, P76194 1-138 (natural protein)
chain: T1 chain
